For one data set, the target named is SOX2DBD (human) (UniProt P48431). The data set is described as follows: EMSA. The settings on record: EMSA: 10 mM HEPES-NaOH pH 7.3, 50 mM KCl, 5 mM MgCl2, 0.5 mM DTT, 5% glycerol, 0.5 mg/ml BSA; 1 h incubation; 1 nM DNA (Fig 2B); 4% native PAGE, 0.5x TBE, 4 C.
The target of the next data set is p300 full length (human) (UniProt Q09472). The data set is described as follows: EMSA. The settings on record: EMSA: 10 mM HEPES-NaOH pH 7.3, 50 mM KCl, 5 mM MgCl2, 0.5 mM DTT, 5% glycerol, 0.5 mg/ml BSA; 1 h incubation; 1 nM DNA (Fig 2B); 4% native PAGE, 0.5x TBE, 4 C.
Another data set addresses SOX2 mutant E78A (human) (UniProt P48431).
In the next data set the target is SOX2 mutant E86A (human) (UniProt P48431).
The target of data set [1] is full-length human SOX2 (human) (UniProt P48431). Nature of the data set: BLI; SOX2 (0.2 mg/ml) immobilised on an AR2G chip, quenched with 1 M ethanolamine; p300 fragments in PBS; global fit to a 1:1 binding model (BLItz Pro v.1.2.1.5).

The source of these data is publication PMC10711550.

full-length human SOX2 (human), sequence (P48431 whole entry, the tested form may be a part): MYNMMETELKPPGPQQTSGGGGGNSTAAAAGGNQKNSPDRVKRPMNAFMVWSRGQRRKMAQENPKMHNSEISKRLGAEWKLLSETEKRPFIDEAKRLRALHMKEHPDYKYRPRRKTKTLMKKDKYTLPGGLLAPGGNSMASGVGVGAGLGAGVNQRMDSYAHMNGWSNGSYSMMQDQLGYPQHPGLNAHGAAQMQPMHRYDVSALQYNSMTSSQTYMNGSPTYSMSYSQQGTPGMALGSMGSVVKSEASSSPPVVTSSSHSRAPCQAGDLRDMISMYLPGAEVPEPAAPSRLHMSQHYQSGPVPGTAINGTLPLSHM
SOX2DBD (human), sequence (P48431 39-127): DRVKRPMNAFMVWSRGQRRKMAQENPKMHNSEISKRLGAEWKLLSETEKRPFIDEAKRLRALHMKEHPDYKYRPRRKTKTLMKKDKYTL
p300 full length (human), sequence (Q09472 whole entry): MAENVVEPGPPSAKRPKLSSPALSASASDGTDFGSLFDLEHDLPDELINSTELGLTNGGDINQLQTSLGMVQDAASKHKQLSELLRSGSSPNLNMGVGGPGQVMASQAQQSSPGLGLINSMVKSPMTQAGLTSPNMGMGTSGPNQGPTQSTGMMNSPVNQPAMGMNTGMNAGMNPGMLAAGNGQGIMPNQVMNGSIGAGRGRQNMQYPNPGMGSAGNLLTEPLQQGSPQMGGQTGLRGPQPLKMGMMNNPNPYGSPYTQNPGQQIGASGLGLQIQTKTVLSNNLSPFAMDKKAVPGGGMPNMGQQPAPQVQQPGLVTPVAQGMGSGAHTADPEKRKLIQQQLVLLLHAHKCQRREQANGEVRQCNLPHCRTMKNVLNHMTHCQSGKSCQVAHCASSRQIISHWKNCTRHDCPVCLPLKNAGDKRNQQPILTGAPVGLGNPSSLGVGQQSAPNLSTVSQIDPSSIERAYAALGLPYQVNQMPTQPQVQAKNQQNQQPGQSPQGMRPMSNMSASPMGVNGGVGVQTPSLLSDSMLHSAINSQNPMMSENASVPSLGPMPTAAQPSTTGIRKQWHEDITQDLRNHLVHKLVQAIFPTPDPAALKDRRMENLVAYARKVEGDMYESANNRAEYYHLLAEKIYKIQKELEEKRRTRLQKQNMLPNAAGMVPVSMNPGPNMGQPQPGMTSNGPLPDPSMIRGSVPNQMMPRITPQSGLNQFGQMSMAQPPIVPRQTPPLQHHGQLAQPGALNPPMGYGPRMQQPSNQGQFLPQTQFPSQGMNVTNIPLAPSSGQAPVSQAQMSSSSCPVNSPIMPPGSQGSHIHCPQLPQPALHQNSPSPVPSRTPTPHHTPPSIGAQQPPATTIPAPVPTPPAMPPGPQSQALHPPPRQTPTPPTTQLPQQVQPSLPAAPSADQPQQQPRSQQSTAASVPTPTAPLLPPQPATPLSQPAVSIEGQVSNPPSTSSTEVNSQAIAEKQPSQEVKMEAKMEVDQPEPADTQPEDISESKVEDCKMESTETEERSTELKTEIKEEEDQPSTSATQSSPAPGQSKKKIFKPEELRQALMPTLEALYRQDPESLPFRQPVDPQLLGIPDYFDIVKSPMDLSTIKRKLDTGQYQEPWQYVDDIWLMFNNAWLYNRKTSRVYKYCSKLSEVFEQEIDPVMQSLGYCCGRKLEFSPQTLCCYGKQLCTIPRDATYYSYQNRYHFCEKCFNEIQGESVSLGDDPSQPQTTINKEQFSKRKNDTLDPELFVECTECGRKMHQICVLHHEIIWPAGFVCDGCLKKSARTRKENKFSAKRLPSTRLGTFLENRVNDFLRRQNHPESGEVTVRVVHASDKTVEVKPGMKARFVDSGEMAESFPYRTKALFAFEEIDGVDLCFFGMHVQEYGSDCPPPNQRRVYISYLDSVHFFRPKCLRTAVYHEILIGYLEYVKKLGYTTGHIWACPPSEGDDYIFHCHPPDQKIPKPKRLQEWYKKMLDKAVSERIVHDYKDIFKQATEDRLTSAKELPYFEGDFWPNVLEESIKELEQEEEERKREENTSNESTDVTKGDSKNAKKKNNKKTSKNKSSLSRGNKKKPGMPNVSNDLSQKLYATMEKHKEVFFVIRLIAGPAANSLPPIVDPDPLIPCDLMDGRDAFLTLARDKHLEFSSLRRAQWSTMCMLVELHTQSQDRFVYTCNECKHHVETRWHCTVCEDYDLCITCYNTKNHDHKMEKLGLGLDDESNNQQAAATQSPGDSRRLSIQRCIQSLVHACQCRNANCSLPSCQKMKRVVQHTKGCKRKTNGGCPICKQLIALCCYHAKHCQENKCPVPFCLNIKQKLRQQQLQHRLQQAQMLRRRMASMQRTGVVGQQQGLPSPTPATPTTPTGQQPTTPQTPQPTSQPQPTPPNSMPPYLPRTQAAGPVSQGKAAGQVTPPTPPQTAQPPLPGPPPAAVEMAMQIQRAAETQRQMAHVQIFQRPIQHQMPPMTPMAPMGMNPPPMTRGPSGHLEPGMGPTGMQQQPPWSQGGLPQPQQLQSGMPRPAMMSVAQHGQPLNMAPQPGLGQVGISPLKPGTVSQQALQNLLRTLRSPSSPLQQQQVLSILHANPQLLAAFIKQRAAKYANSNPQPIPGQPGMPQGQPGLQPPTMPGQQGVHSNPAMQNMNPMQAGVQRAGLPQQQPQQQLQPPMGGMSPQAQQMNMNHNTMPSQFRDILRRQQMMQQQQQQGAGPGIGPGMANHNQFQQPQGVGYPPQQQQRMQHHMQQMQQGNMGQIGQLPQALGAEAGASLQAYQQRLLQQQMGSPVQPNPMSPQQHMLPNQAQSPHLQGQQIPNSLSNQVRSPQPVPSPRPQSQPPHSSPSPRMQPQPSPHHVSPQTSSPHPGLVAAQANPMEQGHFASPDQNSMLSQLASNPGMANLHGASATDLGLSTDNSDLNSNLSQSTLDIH
SOX2 mutant E86A (human), sequence (P48431 whole entry E86A, the tested form may be a part): as the sequence (P48431 whole entry, the tested form may be a part) above, with E86A counted along it
SOX2 mutant E78A (human), sequence (P48431 whole entry E78A): as the sequence (P48431 whole entry, the tested form may be a part) above, with E78A counted along it

In the data set with SOX2DBD (human), “GCGGTCCATTATTCCAATTGATTTCAATTCTATTGATAGTCAGATTGAGAGACTCAGGTGCCTCTTTTGAATATCTTCTTTTGTTGGGGCCGCACACCCTGAGAGGTGGTGGAAGTCTGAGTTAGACTTTAGCCTGATCTACATAGCAAGTTCCGGGACATGCAAGGACTAC (double strand) [SM]” registered a binding signal of 71 % bound. Moreover, the binding result with p300 full length (human) is listed as “no binding”.

“GTAGTCCTTGCATGTCCCGGAACTTGCTATGTAGATCAGGCTAAAGTCTAACTCAGACTTCCACCACCTCTCAGGGTGTGCGGCCCCAAGATAAGAAGATATTCAAAAGAGGCACCTGAGTCTCTCAATCTGACTATCAATAGAATTGAAATCAATTGGAATAATGGACCGC (double strand) [dSM]”: in the data set with SOX2DBD (human), the binding entry is reported as “no binding”.

Consider “full-length p300 (Protein One), Q09472 1-2414”, for which the luciferase activity of pGL3-SM in cells expressing the SOX2 mutant, relative to wild-type SOX2 with SOX2 mutant E78A (human) and with SOX2 mutant E86A (human) was 30% each time.

On to “p300 KIX domain (aa 566-646) (from UniProt Q09472 566-646) (domain or fragment)”, for which, in data set [1], the Kd worked out at 2680 nM, the koff came out at 0.0469 s⁻¹ and the kon amounted to 12300 M⁻¹ s⁻¹.
